{"source": "paper PMC4939597", "about": "“Mechanism for insulin-like peptide 5 distinguishing the homologous relaxin family peptide receptor 3 and 4” (Scientific Reports, 2016)", "key": {"human RXFP3 [1]": {"target": "T1, human RXFP3 (Homo sapiens, UniProt Q9NSD7)", "T1 construct": "expressed in transfected cells; host or cells: HEK293T", "T1 sequence (Q9NSD7 1-469)": "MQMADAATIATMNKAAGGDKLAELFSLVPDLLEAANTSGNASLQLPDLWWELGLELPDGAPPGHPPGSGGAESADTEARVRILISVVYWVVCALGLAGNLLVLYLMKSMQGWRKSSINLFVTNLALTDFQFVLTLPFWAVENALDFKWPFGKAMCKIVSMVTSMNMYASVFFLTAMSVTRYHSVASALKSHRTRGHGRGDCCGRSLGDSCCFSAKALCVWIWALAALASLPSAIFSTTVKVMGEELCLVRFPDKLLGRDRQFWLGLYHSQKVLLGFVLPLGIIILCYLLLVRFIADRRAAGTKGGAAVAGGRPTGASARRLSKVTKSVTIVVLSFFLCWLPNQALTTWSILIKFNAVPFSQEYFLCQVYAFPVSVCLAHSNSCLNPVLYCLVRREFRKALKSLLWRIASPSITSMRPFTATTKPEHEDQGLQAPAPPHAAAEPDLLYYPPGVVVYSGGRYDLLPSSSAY", "assay": "Receptor activation assay, CRE-controlled NanoLuc reporter", "type": "cell-based", "conditions": "for fold lower activation potency towards RXFP3 than relaxin-3: lower than relaxin-3", "experimental": "(§1) Figure 4 Receptor activation activities of the mature INSL5 and R3/I5 mutants towards RXFP3 and RXFP4. HEK293T cells transiently cotransfected by human RXFP3 or human RXFP4 and a CRE-controlled NanoLuc reporter were used for the activation assays. The measured data were expressed as mean ± SE (n = 3) and fitted to sigmoidal or linear curves using the software SigmaPlot 10.0.\n(§2) The receptor activation assays of the mature INSL5 and R3/I5 mutants were carried out using a cAMP-response element (CRE)-controlled NanoLuc reporter according to our previous procedure. Briefly, HEK293T cells were transiently cotransfected with the expression construct of human RXFP3 or human RXFP4 and the CRE-controlled NanoLuc reporter vector pNL1.2/CRE. Next day, the transfected cells were trypsinised, seeded into a 96-well plate, and continuously cultured for 24–36 h to ~90% confluence. To start activation assay, the medium was removed and the activation solution (serum-free DMEM medium plus 1% bovine serum albumin) containing 1.0 μM of forskolin and varied concentrations of peptide was added (100 μl/well). After being continuously cultured at 37 °C for 4 h, the activation solution was removed and the cells were lysed by lysis solution (100 μl/well, from Promega). The cell lysate was then transferred to a white opaque 96-well plate (50 μl/well), mixed with the freshly diluted substrate (50 μl/well), and bioluminescence was immediately measured on a SpectraMax M5 plate reader (Molecular Devices) using the luminescence mode. The measured bioluminescence data were expressed as mean ± SE (n = 3) and fitted to sigmoidal or linear curves using the SigmaPlot10.0 software."}, "human RXFP3 [2]": {"target": "T1, human RXFP3", "assay": "Receptor binding assay, competition with NanoLuc-conjugated R3/I5 tracer", "conditions": "HEK293T cells transiently overexpressing human RXFP3; 0.5 nM NanoLuc-conjugated R3/I5 tracer; 21 °C, 2 h; mean ± SE, n = 3; SEM", "experimental": "(§3) Figure 3 Receptor binding activities of the mature INSL5 and R3/I5 mutants towards RXFP3 and RXFP4. A NanoLuc-conjugated R3/I5 peptide was used as tracer and HEK293T cells transiently overexpressing human RXFP3 or human RXFP4 were used as receptor source. The tracer concentration used in these assays was 0.5 nM. The nonspecific binding was obtained by competition with 1.0 μM of relaxin-3. The measured data were expressed as mean ± SE (n = 3) and fitted to sigmoidal curves using the software SigmaPlot 10.0.\n(§4) The receptor binding assays of the mature INSL5 and R3/I5 mutants were carried out using a NanoLuc-conjugated R3/I5 peptide as tracer and the human embryonic kidney (HEK) 293T cells transiently overexpressing human RXFP3 or human RXFP4 as receptor source. Nonspecific binding was obtained by competition with 1.0 μM of human relaxin-3. Briefly, HEK293T cells were transiently transfected with the expression construct of human RXFP3 or human RXFP4. Next day, the transfected cells were trypsinised, seeded into a 96-well plate, and continuously cultured for 24–36 h to confluence. To start binding assay, the medium was removed and the binding solution (serum-free DMEM medium plus 1% bovine serum albumin) containing 0.5 nM of the NanoLuc-conjugated R3/I5 tracer and varied concentrations of competitor was added (100 μl/well). After incubation at 21 °C for 2 h, the binding solution was removed and the cells were washed twice by ice-cold phosphate-buffered saline (200 μl/well for each wash). Thereafter, the cells were lysed by lysis solution (100 μl/well, from Promega, Madison, WI, USA) and the cell lysate was transferred to a white opaque 96-well plate (50 μl/well). After mixing with the freshly diluted substrate (50 μl/well), bioluminescence was immediately measured on a SpectraMax M5 plate reader (Molecular Devices, Sunnyvale, CA, USA) using the luminescence mode. The measured bioluminescence data were expressed as mean ± SE (n = 3) and fitted to sigmoidal curves using the SigmaPlot10.0 software."}, "human RXFP4 [3]": {"target": "T2, human RXFP4 (Homo sapiens, UniProt Q8TDU9)", "T2 construct": "expressed in transfected cells; host or cells: HEK293T", "T2 sequence (Q8TDU9 whole entry)": "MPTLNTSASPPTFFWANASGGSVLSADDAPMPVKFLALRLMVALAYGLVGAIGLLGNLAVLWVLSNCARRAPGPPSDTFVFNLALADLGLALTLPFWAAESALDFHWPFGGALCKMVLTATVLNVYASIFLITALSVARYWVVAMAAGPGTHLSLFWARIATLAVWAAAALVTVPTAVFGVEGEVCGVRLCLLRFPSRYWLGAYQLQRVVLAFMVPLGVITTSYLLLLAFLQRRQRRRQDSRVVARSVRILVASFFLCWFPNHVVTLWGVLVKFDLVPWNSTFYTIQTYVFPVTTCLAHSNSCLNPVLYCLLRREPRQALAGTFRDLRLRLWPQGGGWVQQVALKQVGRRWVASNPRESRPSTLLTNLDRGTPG", "assay": "Receptor binding assay, competition with NanoLuc-conjugated R3/I5 tracer", "conditions": "HEK293T cells transiently overexpressing human RXFP4; 0.5 nM NanoLuc-conjugated R3/I5 tracer; 21 °C, 2 h; mean ± SE, n = 3; SEM", "experimental": "as §3, §4"}, "human RXFP4 [4]": {"target": "T2, human RXFP4", "assay": "Receptor activation assay, CRE-controlled NanoLuc reporter", "type": "cell-based", "conditions": "HEK293T cells cotransfected with human RXFP4 and CRE-controlled NanoLuc reporter; 1.0 μM forskolin; 37 °C, 4 h; mean ± SE, n = 3; SEM", "experimental": "as §1, §2"}}, "note": "No end group written: not given here.", "data": [{"compound": "CC[C@H](C)[C@@H]1NC(=O)[C@H](Cc2ccccc2)NC(=O)[C@H]([C@@H](C)CC)NC(=O)[C@H](C(C)C)NC(=O)[C@H]([C@@H](C)O)NC(=O)[C@H](CCCNC(=N)N)NC(=O)[C@H]([C@@H](C)CC)NC(=O)[C@H](Cc2ccc(O)cc2)NC(=O)[C@H](CCC(=O)O)NC(=O)[C@H](CCCNC(=N)N)NC(=O)CNC(=O)[C@@H](NC(=O)[C@H](CC(C)C)NC(=O)[C@H](CCCNC(=N)N)NC(=O)[C@@H](NC(=O)[C@H](CO)NC(=O)[C@H](Cc2ccc(O)cc2)NC(=O)[C@@H](N)CCCCN)C(C)C)CSSC[C@@H]2NC(=O)[C@@H](NC(=O)[C@H](CC(C)C)NC(=O)[C@@H](NC(=O)[C@H](CCC(N)=O)NC(=O)[C@H](CC(C)C)NC(=O)[C@H](CC(=O)O)NC(=O)[C@@H](N)CCC(N)=O)[C@@H](C)O)CSSC[C@H](NC(=O)CNC(=O)[C@H](CC(=O)O)NC(=O)[C@H]([C@@H](C)O)NC2=O)C(=O)N[C@@H](CO)C(=O)N[C@@H](CCSC)C(=O)N[C@@H]([C@@H](C)O)C(=O)N[C@@H](CC(=O)O)C(=O)N[C@@H](CC(C)C)C(=O)N[C@@H](CO)C(=O)N[C@@H](C)C(=O)N[C@@H](CC(C)C)C(=O)N[C@H](C(=O)O)CSSC[C@@H](C(=O)NCC(=O)NCC(=O)N[C@@H](CO)C(=O)N[C@@H](CCCNC(=N)N)C(=O)N[C@@H](Cc2c[nH]c3ccccc23)C(=O)O)NC1=O", "values": [{"measurement": "fold higher activation potency towards RXFP3 than its parent mutant", "setting": "human RXFP3 [1]; higher than the 4-mutation INSL5", "result": "~ 5 fold"}, {"measurement": "fold lower activation potency towards RXFP3 than relaxin-3", "setting": "human RXFP3 [1]", "result": "~ 20 fold"}]}, {"compound": "CC[C@H](C)[C@@H]1NC(=O)[C@H](Cc2ccccc2)NC(=O)[C@H]([C@@H](C)CC)NC(=O)[C@H](C(C)C)NC(=O)[C@H]([C@@H](C)O)NC(=O)[C@H](CCCNC(=N)N)NC(=O)[C@H]([C@@H](C)CC)NC(=O)[C@H](Cc2ccc(O)cc2)NC(=O)[C@H](CCC(=O)O)NC(=O)[C@H](CCCNC(=N)N)NC(=O)CNC(=O)[C@@H](NC(=O)[C@H](CC(C)C)NC(=O)[C@H](CCCNC(=N)N)NC(=O)[C@@H](NC(=O)[C@H](CO)NC(=O)[C@H](CCC(=O)O)NC(=O)[C@@H](N)CCCCN)C(C)C)CSSC[C@@H]2NC(=O)[C@@H](NC(=O)[C@H](CC(C)C)NC(=O)[C@@H](NC(=O)[C@H](CCC(N)=O)NC(=O)[C@H](CC(C)C)NC(=O)[C@H](CC(=O)O)NC(=O)[C@@H](N)CCC(N)=O)[C@@H](C)O)CSSC[C@H](NC(=O)CNC(=O)[C@H](CC(=O)O)NC(=O)[C@H]([C@@H](C)O)NC2=O)C(=O)N[C@@H](CO)C(=O)N[C@@H](CCSC)C(=O)N[C@@H]([C@@H](C)O)C(=O)N[C@@H](CC(=O)O)C(=O)N[C@@H](CC(C)C)C(=O)N[C@@H](CO)C(=O)N[C@@H](C)C(=O)N[C@@H](CC(C)C)C(=O)N[C@H](C(=O)O)CSSC[C@@H](C(=O)NCC(=O)NCC(=O)N[C@@H](CO)C(=O)N[C@@H](CCCNC(=N)N)C(=O)N[C@@H](Cc2c[nH]c3ccccc23)C(=O)O)NC1=O", "note": "[[L(B9)R,Y(B17)F,A(B20)G,S(B21)G]INSL5]", "values": [{"measurement": "fold lower activation potency towards RXFP3 than relaxin-3", "setting": "human RXFP3 [1]", "result": "~ 100 fold"}]}, {"compound": "CC[C@H](C)[C@@H]1NC(=O)[C@H](Cc2ccccc2)NC(=O)[C@H](CCC(=O)O)NC(=O)[C@H](CCCNC(=N)N)NC(=O)CNC(=O)[C@@H](NC(=O)[C@H](CC(C)C)NC(=O)[C@H](CCCCN)NC(=O)[C@@H](NC(=O)CNC(=O)[C@H](CCC(=O)O)NC(=O)[C@@H]2CCCN2C(=O)[C@H](C)NC(=O)[C@H](C)NC(=O)[C@@H](N)CCCNC(=N)N)C(C)C)CSSC[C@@H]2NC(=O)[C@@H](NC(=O)[C@H](CC(C)C)NC(=O)[C@@H](NC(=O)[C@H](CCC(N)=O)NC(=O)[C@H](CC(C)C)NC(=O)[C@H](CC(=O)O)NC(=O)[C@@H](N)CCC(N)=O)[C@@H](C)O)CSSC[C@H](NC(=O)CNC(=O)[C@H](CC(=O)O)NC(=O)[C@H]([C@@H](C)O)NC2=O)C(=O)N[C@@H](CO)C(=O)N[C@@H](CCSC)C(=O)N[C@@H]([C@@H](C)O)C(=O)N[C@@H](CC(=O)O)C(=O)N[C@@H](CC(C)C)C(=O)N[C@@H](CO)C(=O)N[C@@H](C)C(=O)N[C@@H](CC(C)C)C(=O)N[C@H](C(=O)O)CSSC[C@@H](C(=O)NCC(=O)NCC(=O)N[C@@H](CO)C(=O)N[C@@H](CCCNC(=N)N)C(=O)N[C@@H](Cc2c[nH]c3ccccc23)C(=O)O)NC(=O)[C@H]([C@@H](C)O)NC(=O)[C@H](Cc2ccccc2)NC(=O)[C@H]([C@@H](C)CC)NC(=O)[C@H](C(C)C)NC(=O)[C@H](C)NC(=O)[C@H](CCCNC(=N)N)NC1=O", "note": "[[Y(B5)E]R3/I5]", "values": [{"measurement": "fold lower activation potency towards RXFP3 compared with wild-type R3/I5", "setting": "human RXFP3 [1]; lower than wild-type R3/I5", "result": "~ 6 fold"}]}, {"compound": "[R(B12)L,G(B23)A,G(B24)S]R3/I5: recombinant mature two-chain R3/I5 mutant (chain 1 RAAPYGVRLCGLEFIRAVIFTCASSRW; chain 2 QDLQTLCCTDGCSMTDLSALC; disulfide (positions not given here); not fully specified; also: A-chain N-terminal pyroglutamate likely)", "values": [{"measurement": "pIC50 RXFP3", "setting": "human RXFP3 [2]", "result": "8.38 ± 0.03"}, {"measurement": "pIC50 RXFP4", "setting": "human RXFP4 [3]", "result": "7.83 ± 0.04"}, {"measurement": "pEC50 RXFP4", "setting": "human RXFP4 [4]", "result": "8.16 ± 0.04"}]}, {"compound": "[Y(B5)E,R(B12)L,F(B20)Y,G(B23)A,G(B24)S]R3/I5: recombinant mature two-chain R3/I5 mutant (chain 1 RAAPEGVRLCGLEFIRAVIYTCASSRW; chain 2 QDLQTLCCTDGCSMTDLSALC; disulfide (positions not given here); not fully specified; also: A-chain N-terminal pyroglutamate likely)", "values": [{"measurement": "pIC50 RXFP3", "setting": "human RXFP3 [2]", "result": "8.11 ± 0.02"}, {"measurement": "pIC50 RXFP4", "setting": "human RXFP4 [3]", "result": "7.61 ± 0.05"}, {"measurement": "pEC50 RXFP4", "setting": "human RXFP4 [4]", "result": "8.24 ± 0.05"}]}]}
